Eight variants from IntAct's records for PubMed 22045334 can be followed below.

B1: Mothers against decapentaplegic homolog 3 (Homo sapiens), P84022 (parent)
chain: MSSILPFTPPIVKRLLGWKKGEQNGQEEKWCEKAVKSLVKKLKKTGQLDELEKAITTQNVNTKCITIPRSLDGRLQVSHRKGLPHVIYCRLWRWPDLHSHHELRAMELCEFAFNMKKDEVCVNPYHYQRVETPVLPPVLVPRHTEIPAEFPPLDDYSHSIPENTNFPAGIEPQSNIPETPPPGYLSEDGETSDHQMNHSMDAGSPNLSPNPMSPAHNNLDLQPVTYCEPAFWCSISYYELNQRVGETFHASQPSMTVDGFTDPSNSERFCLGLLSNVNRNAAVELTRRHIGRGVRLYYIGGEVFAECLSDSAIFVQSPNCNQRYGWHPATVCKIPPGCNLKIFNNQEFAALLAQSVNQGFEAVYQLTRMCTIRMSFVKGWGAEYRRQTVTSTPCWIELHLNGPLQWLDKVLTQMGSPSIRCSSVS

Variants of B1 are the subject of the first assay. Particulars: with smad4_human SMAD4, Q13485.
Regarding K333R;K378R;K409R, the “effect of a mutation on the interaction” value is “decreasing interaction”. K333R;K341R;K378R;K409R: the “effect of a mutation on the interaction” value was “decreasing interaction”.

The variants in the next assay derive from B1. Conditions: with ubc_human UBC.
For the variant K341R, the “effect of a mutation on the interaction” value is “decreasing interaction”. Same read-out and setting: in the case of K378R it was “decreasing interaction”; in that of K333R, “decreasing interaction”; in that of K409R, “decreasing interaction”.

Variants of B1 are the subject of another assay. Particulars: with smuf2_human SMURF2, Q9HAU4.
T179V;S204A;S208A;S213A: the “effect of a mutation on the interaction” value is reported as “disrupting interaction”. On the same count and under the same terms, for T179V the value was “disrupting interaction”.
